Data from article PMC6795518.

What was measured:
[1] = target: TcdB2-TccC3 from Photorhabdus luminescens (Pl-TcdB2-TccC3) (Photorhabdus luminescens) (UniProt Q8GF99); test: BLI
[2] = target: XptA1 from Xenorhabdus nematophila (Xn-XptA1) (Xenorhabdus nematophila); test: cryo-EM structure

With “TcdA1 from Photorhabdus luminescens (Pl-TcdA1), Q9RN43 1-2516” the Kd [1] was 0.63 nM.

With “TcdA4 from Morganella morganii (Mm-TcdA4) (natural protein)” the Kd [1] was 11.3 nM.

“XptA1 from Xenorhabdus nematophila (Xn-XptA1) (natural protein)” was tested, and the Kd [1] was 1.99 nM and the stoichiometry N [2] was 5.
